Laboratory results from patent publication US7074761B1, “Peptides and production and use thereof” (Takeda Chemical Ind., Ltd., priority 1996, dated 2006).
Each block holds one molecule with its values, some of them ahead of it. Where a SMILES comes first, the peptide text is derived from it. Bridges are numbered along the chain shown (N, C = ends). Where no end group is shown, it is not given here.

Assays:
human SSTR4 = target: T1, human SSTR4 (Homo sapiens, UniProt P31391); assay: [125I]-somatostatin binding inhibition, SSTR4 CHO cell membrane fraction; settings: 25° C., 60 minutes
T1 construct: expressed in transfected cells; host or cells: CHO(dhfr-) cells, clone SSTR4-1-2, plasmid pA-1-11-SSTR4 (vector pAKKO-111)
T1 sequence (P31391 whole entry): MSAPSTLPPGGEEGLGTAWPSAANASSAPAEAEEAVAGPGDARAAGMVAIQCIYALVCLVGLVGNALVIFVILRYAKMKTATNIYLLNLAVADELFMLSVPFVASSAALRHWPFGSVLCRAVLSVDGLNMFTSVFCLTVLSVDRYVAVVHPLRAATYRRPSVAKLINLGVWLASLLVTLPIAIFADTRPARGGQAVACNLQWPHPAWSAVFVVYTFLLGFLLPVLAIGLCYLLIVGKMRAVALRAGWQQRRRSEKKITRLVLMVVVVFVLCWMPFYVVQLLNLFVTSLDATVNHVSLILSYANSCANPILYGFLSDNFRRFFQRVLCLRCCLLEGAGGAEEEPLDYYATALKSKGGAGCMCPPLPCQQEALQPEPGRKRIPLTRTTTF
Description: CHO(dhfr^−) cells (1×10^6 cells) were cultured on HAM F12 medium containing 10% fetal bovine serum in a dish with a diameter of 8 cm for 24 hours. Into these cells was introduced 10 μg of the human SSTR4 DNA expression plasmid pA-1-11-SSTR4 obtained as described above in (2) by the calcium phosphate method (Cell Phect Transfection Kit; Pharmacia). At 24 hours after transfection, the medium was exchanged for DMEM containing 10% dialyzed fetal bovine serum, and cells forming a colony on this medium (namely DHFR^+ cells) were selected. Further, the cells selected were treated by the limiting dilution method for cloning from a single cell, and the cells thus cloned were measured for their somatostatin receptor protein expression ability by the binding assay described in Reference Example 1 (3). In this manner, a cell line with high somatostatin-binding activity, SSTR4-1-2, was selected.
The human somatostatin receptor expressing CHO cell lines SSTR1-8-3, SSTR2-HS5-9, SSTR3-15-19, SSTR4-1-2 and SSTR5-32-4 (10^9 cells each) were respectively suspended in phosphate buffered physiological saline supplemented with 5 mM EDTA (PBS-EDTA) and centrifuged. To each cell pellet was added 10 ml of cell homogenation buffer (10 mM NaHCO3, 5 mM EDTA, pH=7.5), followed by homogenation with a Polytron homogenizer. The homogenate was centrifuged at 400×g for 15 minutes, and the supernatant obtained was further centrifuged at 100,000×g for 1 hour to give a membrane fraction as a precipitate. […]
(§1) The membrane fractions prepared in Reference Example 6 were each diluted to 3 μg/ml with assay buffer. […] After filtration, the radioactivity of [^125I]-somatostatin remaining on the filter paper was measured. For each test substance, the binding inhibition percentage (%) was calculated according to the formula: PBM=(B−NSB)/(B0−NSB)×100 (where PBM: percent maximum binding; B: radioactivity when the test sample is added; B0: maximum bound radioactivity; NSB: non-specifically bound radioactivity). […]

human SSTR5 = target: T2, human SSTR5 (Homo sapiens, UniProt P35346); assay: [125I]-somatostatin binding inhibition, SSTR5 CHO cell membrane fraction; settings: 25° C., 60 minutes
T2 construct: expressed in transfected cells; host or cells: CHO(dhfr-) cells, clone SSTR5-32-4, plasmid pA-1-11-SSTR5 (vector pAKKO-111)
T2 sequence (P35346 whole entry): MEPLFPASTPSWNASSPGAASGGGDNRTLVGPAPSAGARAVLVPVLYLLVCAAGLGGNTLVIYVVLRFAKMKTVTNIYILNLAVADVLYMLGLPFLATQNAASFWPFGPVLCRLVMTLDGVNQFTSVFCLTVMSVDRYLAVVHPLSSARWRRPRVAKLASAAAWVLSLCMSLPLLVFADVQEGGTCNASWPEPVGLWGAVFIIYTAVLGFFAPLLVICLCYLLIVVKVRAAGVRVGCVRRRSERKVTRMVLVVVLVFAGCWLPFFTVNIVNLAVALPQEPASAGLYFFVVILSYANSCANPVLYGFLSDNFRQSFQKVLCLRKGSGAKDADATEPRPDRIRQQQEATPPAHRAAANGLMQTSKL
Description: CHO(dhfr^−) cells (1×10^6 cells) were cultured on HAM F12 medium containing 10% fetal bovine serum in a dish with a diameter of 8 cm for 24 hours. Into these cells was introduced 10 μg of the human SSTR5 cDNA expression plasmid pA-1-11-SSTR5 obtained as described above in (2) by the calcium phosphate method (Cell Phect Transfection Kit; Pharmacia). At 24 hours after transfection, the medium was exchanged for DMEM containing 10% dialyzed fetal bovine serum, and cells forming a colony on this medium (namely DHFR^+ cells) were selected. Further, the cells selected were treated by the limiting dilution method for cloning from a single cell, and the cells thus cloned were measured for their somatostatin receptor protein expression ability by the binding assay described in Reference Example 1 (3). In this manner, a cell line with high somatostatin-binding activity. SSTR5-32-4, was selected. […]
as §1

[1] = target: T3, human somatostatin receptor protein subtype 2 (SSTR2) (human, UniProt P30874 1-369); assay: cell-based or functional assay
T3 sequence (P30874 whole entry): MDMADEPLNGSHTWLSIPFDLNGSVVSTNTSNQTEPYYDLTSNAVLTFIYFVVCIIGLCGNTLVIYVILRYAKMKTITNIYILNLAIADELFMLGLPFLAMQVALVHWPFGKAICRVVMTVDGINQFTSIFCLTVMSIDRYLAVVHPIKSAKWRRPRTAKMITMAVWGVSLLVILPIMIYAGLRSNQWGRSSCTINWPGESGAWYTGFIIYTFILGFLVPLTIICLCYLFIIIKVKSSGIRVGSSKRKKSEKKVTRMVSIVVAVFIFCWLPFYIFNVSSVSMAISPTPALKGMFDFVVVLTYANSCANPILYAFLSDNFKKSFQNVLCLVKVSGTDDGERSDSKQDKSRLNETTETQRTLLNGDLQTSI

[2] = target: T4, human somatostatin receptor protein subtype 3 (SSTR3) (human, UniProt P32745 1-418); assay: cell-based or functional assay
T4 sequence (P32745 whole entry): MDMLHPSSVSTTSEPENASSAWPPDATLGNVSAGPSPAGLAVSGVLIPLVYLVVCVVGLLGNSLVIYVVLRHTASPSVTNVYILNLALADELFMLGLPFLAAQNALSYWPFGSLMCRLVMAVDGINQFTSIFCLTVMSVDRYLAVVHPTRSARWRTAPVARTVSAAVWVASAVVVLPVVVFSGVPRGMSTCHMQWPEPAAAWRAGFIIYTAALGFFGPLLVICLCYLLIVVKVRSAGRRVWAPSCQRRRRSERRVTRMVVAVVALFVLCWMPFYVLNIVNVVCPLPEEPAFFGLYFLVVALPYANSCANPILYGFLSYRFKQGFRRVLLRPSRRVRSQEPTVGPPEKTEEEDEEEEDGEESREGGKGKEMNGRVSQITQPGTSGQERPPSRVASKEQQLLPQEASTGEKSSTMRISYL

[3] = target: human somatostatin receptor protein subtype 4 (SSTR4) (human, UniProt P31391 1-388); assay: cell-based or functional assay
Chain of human somatostatin receptor protein subtype 4 (SSTR4) (P31391 whole entry): as the sequence (P31391 whole entry) above

[4] = target: T5, human somatostatin receptor protein subtype 5 (SSTR5) (human, UniProt P35346 1-364); assay: cell-based or functional assay
T5 sequence (P35346 whole entry): as the sequence (P35346 whole entry) above

[5] = target: T3, human somatostatin receptor protein …; assay: displacement of 200 pM [125I]-somatostatin from membrane fraction of CHO cells expressing the human receptor; filter binding, Hill plot
Description: (§2) The membrane fractions prepared in Reference Example 6 were each diluted to 3 µg/ml with assay buffer. […] After 60 minutes of reaction at 25° C., each reaction mixture was suction-filtered using a polyethyleneimine-treated Whatman glass filter (GF-B). […] For each test substance, the binding inhibition percentage (%) was calculated according to the formula:
(§3) PBM=(B-NSB)/(B_0-NSB)×100 (where PBM: percent maximum binding; B: radioactivity when the test sample is added; B_0: maximum bound radioactivity; NSB: non-specifically bound radioactivity).

[6] = target: T4, human somatostatin receptor protein …; assay: as above
Description: as §2, §3

[7] = target: T5, human somatostatin receptor protein …; assay: as above
Description: as §2, §3

[8] = target: T6, human somatostatin receptor protein subtype 1 (SSTR1) (human, UniProt P30872 1-391); assay: as above
T6 construct: whole, on cells; also called cell line SSTR1-8-3
T6 sequence (P30872 whole entry): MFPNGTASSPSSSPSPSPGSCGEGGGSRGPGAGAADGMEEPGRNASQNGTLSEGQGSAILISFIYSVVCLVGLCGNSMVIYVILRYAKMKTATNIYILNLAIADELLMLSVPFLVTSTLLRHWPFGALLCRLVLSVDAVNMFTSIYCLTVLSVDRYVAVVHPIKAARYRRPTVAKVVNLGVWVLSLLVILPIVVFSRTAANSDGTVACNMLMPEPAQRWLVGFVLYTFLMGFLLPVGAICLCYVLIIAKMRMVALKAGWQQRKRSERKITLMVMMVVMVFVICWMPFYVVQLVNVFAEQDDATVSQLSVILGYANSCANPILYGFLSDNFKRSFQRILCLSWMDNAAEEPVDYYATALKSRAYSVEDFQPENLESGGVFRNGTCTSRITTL
Description: as §2, §3

IC50 (human SSTR4): 500 pM
IC50 (human SSTR5): 500 pM
Molecule: C[C@@H](O)[C@@H]1NC(=O)[C@H](CCCCN)NC(=O)[C@H](Cc2c[nH]c3ccccc23)NC(=O)[C@H](Cc2ccccc2)NC(=O)[C@H](Cc2ccccc2)NC(=O)[C@H](CC(N)=O)NC(=O)[C@H](CCCNC(=N)N)NC(=O)[C@@H](N)CSSC[C@@H](C(=O)N[C@@H](CCCCN)C(=O)O)NC(=O)[C@H](CO)NC(=O)[C@H](CO)NC(=O)[C@H](Cc2ccccc2)NC1=O [hCS-13] (H-CRNFFWKTFSSCK-OH; disulfide 1-12; N-terminus and C-terminus assumed)

ED50 of inhibition of forskolin-stimulated intracellular cAMP accumulation [1]: 5000 pM
ED50 of inhibition of forskolin-stimulated intracellular cAMP accumulation [2]: 1000 pM
ED50 of inhibition of forskolin-stimulated intracellular cAMP accumulation [3]: 100 pM
ED50 of inhibition of forskolin-stimulated intracellular cAMP accumulation [4]: 200 pM
IC50 [5]: 600 pM
IC50 [6]: 600 pM
IC50 [7]: 400 pM
B1: human peptide hCS-17 (peptide)
peptide: DRMPCRNFFWKTFSSCK
modifications: disulfide 5-16

IC50 [8]: 6000 pM
IC50 [5]: 300 pM
IC50 [6]: 700 pM
B2: deletion type human peptide hCS-13 (peptide)
peptide: CRNFFWKTFSSCK
modifications: disulfide 1-12

ED50 of inhibition of forskolin-stimulated intracellular cAMP accumulation [1]: 7000 pM
ED50 of inhibition of forskolin-stimulated intracellular cAMP accumulation [2]: 1000 pM
ED50 of inhibition of forskolin-stimulated intracellular cAMP accumulation [3]: 200 pM
ED50 of inhibition of forskolin-stimulated intracellular cAMP accumulation [4]: 200 pM
IC50 [5]: 800 pM
IC50 [6]: 900 pM
B3: deletion type human peptide hCS-15 (peptide)
peptide: MPCRNFFWKTFSSCK
modifications: disulfide 3-14
